Three molecules from patent publication US20260193333A1, “METHODS OF INHIBITING FIBRIL GROWTH” (University of Tennessee Research Foundation, priority 2023, published 2026) can be followed below.

For data set [1], the system named is rVλ6WIL fibrils. The data set can be described thus: rVλ6WIL (WIL) fibril extension assay with biotinylated rVλ6WIL monomer. In kind it is biochemical. To be noted: for % Change (at 2 μM) in rVλ6WIL fibril extension: at 2 μM sample, 20 nM Biotin-WIL, blocking agent BSA, compared to control sample. On the procedure:
A WIL fibril extension assay was developed for analyzing in vitro amyloid fibril formation using biotinylated WIL monomers.
First, a high binding 96-well ELISA plate was coated with 0.83 μM sonicated rVλ6WIL synthetic fibrils ([…]). The fibrils were then dried in a 37° C. oven. Subsequently, the plate was washed twice with wash buffer (PBS+0.05% tween 20). The plate was then blocked with […] of 1% BSA in PBS for 1 hour at 37° C. The blocking buffer was then removed and the plate was washed twice with wash buffer. For positive control wells, 100 mL of 20 nM biotinylated rVλ6WIL monomer (biotinylated with EZ-link Sulfo-NHS-biotin (ThermoFisher Scientific) following their protocol) in 1% BSA+0.05% tween 20 in PBS (BSAT) was added per well. For test wells, 100 mL of a mix of 20 nM biotinylated rVλ6WIL monomer plus an amyloid-reactive peptide, an amyloid-reactive antibody, or an amyloid-reactive antibody-peptide fusion protein (2, 0.5, 0.05, 0.01, 0.005 and 0.001 […]) in BSAT was added per well. Background control wells (containing no fibrils) contained […] of 20 nM biotinylated rVλ6WIL monomer in BSAT added to them. The microplate was then incubated for 1 hour at 37° C. The plate was then washed twice with wash buffer. 100 mL of a 1:1000 dilution of europium-labeled streptavidin (Perkin Elmer) in BSAT was then added into each well and incubated for 1 hour at 37° C. Next, the plate was washed 3× with wash buffer. To quantify amyloid fibril formation, […] of enhancement solution (Perkin Elmer) was added to each well and time-resolved fluorescence emission was measured in each well.
The methods of Example 1 were carried out in the presence of the amyloid reactive peptide p5R, an amyloid-reactive antibody-peptide fusion protein, an amyloid-reactive humanized antibody, or a control.
Assay conditions included the following: 20 nM biotinylated WIL monomer, 1 hour incubation using BSA as a blocking agent, and 50 μL/well of 10 μg/mL fibrils (0.83 μg).

Data set [2] has as its target rVλ6WIL synthetic fibrils. The data set can be described thus: fibril extension assay: 20 nM biotin-WIL monomer binding to plate-coated rVλ6WIL fibrils in the presence of 2 µM sample, BSA block, europium-streptavidin.

On to “Amyloid reactive peptide p5R: amyloid-reactive peptide p5R, SEQ ID NO: 2, RAQRAQARQARQAQRAQRAQARQARQ (RAQRAQARQARQAQRAQRAQARQARQ)”, for which the “% Change (at 2 μM) in rVλ6WIL fibril extension” value in data set [1] is given as “+12%”. The “rVλ6WIL fibril extension in the presence of the peptide” value in data set [1] (concentrations between 0.001 μM to 2.0 μM, FIGS. 2A, 2B) is listed as “insufficient to inhibit rVλ6WIL fibril extension”.

B1: amyloid-reactive humanized antibody (VH SEQ ID NO:55 / VL SEQ ID NO:36) (antibody, V domains shown)
VH: QVQLQESGPGLVKPSETLSLTCTVSGFSLSSYGVSWIRQPPGKGLEWLGVIWGEGSTNYHPNLMSRVTISVDTSKSQVLFKLSSVTAADTAVYYCATLDYWGQGTSVTVSS
VL: DVVMTQSPLSLPVTLGQPASISCRSSQSLVHRSGNTYLHWFQQRPGQSPRLLIYKVSNRFSGVPDRFSGSGSGTDFTLKISRVEAEDVGVYFCFQTTYVPNTFGGGTKLEIK
With B1, in data set [1], the “% Change (at 2 μM) in rVλ6WIL fibril extension” value is −89%. The “extension of rVλ6WIL fibrils in the presence of the antibody” value in data set [1] (beginning at a concentration of 0.01 μM, FIGS. 4A, 4B) is “significantly attenuated”. Besides, in data set [1] (tested 0.001 to 2 μM), the “concentration at which significant attenuation of rVλ6WIL fibril extension begins” value amounted to 10 nM and the “concentration of maximum level of rVλ6WIL fibril extension inhibition” value was 2000 nM. Further, in data set [2], the % Change (at 2 µM) of rVλ6WIL fibril extension against control is -89%.
Turning to RAQRAQARQARQAQRAQRAQARQARQ [amyloid-reactive peptide p5R], in data set [2], the % Change (at 2 µM) of rVλ6WIL fibril extension against control is 12%.
